Data taken from patent publication US9290570B2, “Pan-ELR+ CXC Chemokine Antibodies” (Eli Lilly and Company, priority 2013, dated 2016).

What was measured:
human CXCR2 = biological target: T1, human CXCR2 (Homo sapiens, UniProt P25025); experiment: U937-huCXCR2 FLIPR activity of wild type and mutant human CXCL8; format: cell-based; conditions: activity of the CXCL8 variant itself on U937-huCXCR2 cells
T1 construct: expressed in transfected cells; host or cells: U937 monocytic cell line, retrovirally transduced (U937-huCXCR2)
T1 sequence (P25025 1-360): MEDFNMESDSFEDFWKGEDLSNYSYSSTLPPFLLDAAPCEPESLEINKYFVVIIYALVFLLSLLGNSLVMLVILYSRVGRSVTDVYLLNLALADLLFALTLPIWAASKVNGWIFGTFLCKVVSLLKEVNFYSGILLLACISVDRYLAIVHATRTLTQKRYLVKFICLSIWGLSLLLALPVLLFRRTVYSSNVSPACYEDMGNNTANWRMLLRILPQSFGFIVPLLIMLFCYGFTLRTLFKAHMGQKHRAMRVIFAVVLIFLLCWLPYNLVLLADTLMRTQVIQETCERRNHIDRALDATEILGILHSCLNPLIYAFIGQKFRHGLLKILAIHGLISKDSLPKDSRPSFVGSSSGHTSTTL
Description: Wild type and mutant human CXCL8 are tested for biologic activity and for neutralization by Antibody 1 using the U937-huCXCR2 assay. U937-huCXCR2 is a monocytic cell line transduced with retrovirus for expression of human CXCR2. A description of the U937-huCXCR2 assay is found below under Neutralizing Assays.
CXCL8 mutants are serially diluted in Assay Buffer containing 0.2% BSA in wells of v-bottom 96-well polypropylene plates. Ligand concentrations are 3 times the final assay concentration (final assay concentrations range from 300 to 0.0051 nM). A cell plate and a ligand plate are loaded into a Fluorescent Imaging Plate Reader (FLIPR-3, Molecular Devices) programmed to transfer 50 μL of ligand to wells of the cell plate. Fluorescence is recorded at 1 second intervals for 90 seconds. The change in fluorescence [delta relative fluorescence units (DRFU), Max RFU-Min RFU] is calculated from images 10 to 90. DRFU versus log (ligand concentration) is plotted and EC50 values are determined by nonlinear regression using Graph Pad Prism. Assays are performed in triplicate over three assay plates.

[1] = tested on: SKOV3-Luc ovarian cancer cells; experiment: SKOV3-Luc ovarian cancer xenograft model; format: in vivo, mice; conditions: cisplatin 2.5 mg/kg, Antibody 1 20 mg/kg once a week intraperitoneal
Description: SKOV3-Luc is a human ovary cancer cell line that expresses firefly luciferase gene. SKOV3-Luc cells are often used in vivo to establish human ovarian adenocarcinoma tumor growth.
SKOV3-Luc ovarian cancer cells were mixed 1:1 with matrigel and implanted subcutaneously in the right rear flank of athymic nude female mice at 3.0×10^6 cells per injection. Mice were randomized into 4 groups at baseline according to tumor volume after the xenografts were grown to an average tumor volume of 200 mm^3 Mice received either control IgG4 antibody (2.5 mg/kg once a week), cisplatin (2.5 mg/kg once a week), Antibody 1 (20 mg/kg once a week), or a combination of cisplatin (2.5 mg·kg once a week) and Antibody 1 (20 mg/kg once a week) by intraperitoneal injection.

Molecule | U937 FLIPR activity (EC50) (human CXCR2) | tumor growth inhibition compared to isotype control [1]
R6A: R6A point mutant of human CXCL8 (SEQ ID NO: 27) [Antibody R6A] | Not Active | 
N.N.[Cl][Pt][Cl] [Cisplatin, cisplatin] |  | did not show statistically significant tumor growth inhibition
